Read-outs that look alike come from different tables or passages of the source.
Experiments:
Assay in all cases: cell-based or functional assay
[1] = target: HA of ca A/Wuhan/359/95 (H3N2) (influenza A virus)
[2] = target: T1, HA of A/Puerto Rico/8/34 (H1N1) (influenza A virus, UniProt P03452 18-565)
[3] = target: HA of ca A/Wuhan/359/95 (H3N2) (influenza A virus); remark: listed apart in the source
[4] = target: T1, HA of A/Puerto Rico/8/34 (H1N1); remark: listed apart in the source
rHK68_I45T H3 HA = rHK68_I45T H3 HA (influenza A virus)
rHK68_I45N H3 HA = rHK68_I45N H3 HA (influenza A virus)
rHK68_D19N H3 HA = rHK68_D19N H3 HA (influenza A virus)
rHK68_A196T H3 HA = rHK68_A196T H3 HA (influenza A virus)
rHK68_Q42R H3 HA = rHK68_Q42R H3 HA (influenza A virus)
rHK68_K156Q H3 HA = rHK68_K156Q H3 HA (influenza A virus)
rHK68_I18R H3 HA = rHK68_I18R H3 HA (influenza A virus)
rHK68_D19Y H3 HA = rHK68_D19Y H3 HA (influenza A virus)

T1 sequence (P03452 18-565 limits assumed): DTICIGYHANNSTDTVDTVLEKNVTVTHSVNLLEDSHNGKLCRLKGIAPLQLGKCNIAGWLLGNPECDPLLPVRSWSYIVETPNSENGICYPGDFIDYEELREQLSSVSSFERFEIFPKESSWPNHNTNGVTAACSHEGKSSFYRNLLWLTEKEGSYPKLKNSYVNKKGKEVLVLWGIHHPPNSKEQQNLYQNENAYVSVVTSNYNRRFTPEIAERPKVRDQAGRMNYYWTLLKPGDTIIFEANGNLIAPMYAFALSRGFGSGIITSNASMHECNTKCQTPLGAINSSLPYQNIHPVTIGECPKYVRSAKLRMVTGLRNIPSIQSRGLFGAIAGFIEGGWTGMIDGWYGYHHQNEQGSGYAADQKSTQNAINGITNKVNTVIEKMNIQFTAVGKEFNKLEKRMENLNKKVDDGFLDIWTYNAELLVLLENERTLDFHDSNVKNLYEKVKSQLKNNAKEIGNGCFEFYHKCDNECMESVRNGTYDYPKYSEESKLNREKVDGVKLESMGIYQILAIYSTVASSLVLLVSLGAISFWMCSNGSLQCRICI

Row | Binder | Neutralization IC50, H3-WH95 [1] | Neutralization IC50, H1-PR34 [2] | Neutralization IC50, H3-WH95 [3] | Neutralization IC50, H3-WH95-OR [3] | Neutralization IC50, H1-PR34 [4] | Neutralization IC50, H1-PR34-OR [4] | other results
1 | Antibody 8 (antibody, V domains shown) VH: QVQLQQSGPGLVKPSQTLSLTCVISGDTVSSNRATWNWMRQSPLRGLEWLGRTYYRSKWYNDYAVSVKSRVVINPDTSKNQVSLQLNTVTPDDSGVYFCARGGHITVFGVNIDAFDIWGLGTKVTVSS VL: DIQMTQSPSSLSASVGDRVTISCRASQRLNSYLHWYQQTPGQAPKLLIYATSTLQSGVSPRFSGSGSGTDFTLTISSLQPEDVATYYCQLSRTFGHGTKVEIK | > 50 µg/mL | 3.02 µg/mL |  |  |  |  | 
2 | Antibody 3 (antibody, V domains shown) VH: QVQLQESGPGLVKPSQTLSLTCAISGDSVSSNNAVWNWIRQSPSRGLEWLGRTYYRSKWYNDYAESVKSRITVNPDTSKNQFSLHLKSVTPEDTAVFYCVRSGHITVFGVNVDAFDMWGQGTMVTVSS VL: DIQMTQSPSSLSASVGDRVTITCRTSQSLSSYLHWYQQKPGKAPKLLIYAASSLQSGVPSRFSGSGSGTDFTLTISSLQPEDFATYYCQQSRTFGQGTKVEIK | 3.96 µg/mL | 1.07 µg/mL | 5.63 µg/mL | 7.7 µg/mL | 2.17 µg/mL | 1.39 µg/mL | 
3 | Antibody 14 (antibody, V domains shown) VH: QVQLQQSGPGLVKPSQTLSLTCAISGDSVSSNNAVWNWIRQSPSRGLEWLGRTYYRSKWYNDYAESVKSRITINPDTSKNQFSLQLNSVTPEDTAVYYCARSGHITVFGVNVDAFDMWGQGTTVTVSS VL: DIQMTQSPSSLSASVGDRVTITCRTSQSLSSYTHWYQQKPGKAPKLLIYAASSRLSGVPSRFSGSGSGTDFTLTISSLQPEDFATYYCQQSRTFGQGTKVEIK |  |  | 2.77 µg/mL | 3.09 µg/mL | 1.25 µg/mL | 0.83 µg/mL | 
4 | Antibody 15 (antibody, V domains shown) VH: QVQLQQSGPGLVKPSQTLSLTCAISGDSVSSNNAVWNWIRQSPSRGLEWLGRTYYRSKWYNDYAESVKSRITINPDTSKNQFSLQLNSVTPEDTAVYYCARSGHITVFGVNVDAFDMWGQGTTVTVSS VL: DIQMTQSPSSLSASVGDRVTITCRTSQSLSSYTHWYQQKPGKAPKLLIYAASSRGSGVPSRFSGSGSGTDFTLTISSLQPEDFATYYCQQSRTFGQGTKVEIK |  |  | 3.32 µg/mL | 3.48 µg/mL | 1.47 µg/mL | 0.9 µg/mL | 
5 | Antibody 10 (antibody, V domains shown) VH: QVQLQQSGPGLVKPSQTLSLTCAISGDSVSSNSATWNWIRQSPSRGLEWLGRTYYRSKWYNDYADFLKRRITINPDTSNNEVSLRLTSVTPDDTALYYCARGGHITVFGVNIDAFDVWGQGTMVTVSS VL: DIQMTQSPSSLSASVGDRITISCRTSQSLRSYLHWYQQKPGKAPKLLIYASSTLQSGVPSRFSGSGSGTDFTLTISNLQPEDFATYYCQLSRTFGQGTKVEIK | 8.7 µg/mL | 2.15 µg/mL |  |  |  |  | 
6 | Antibody 13 (antibody, V domains shown) VH: QVQLQQSGPGLVKPSQTLSLTCAISGDSVSSYNAVWNWIRQSPSRGLEWLGRTYYRSGWYNDYAESVKSRITINPDTSKNQFSLQLNSVTPEDTAVYYCARSGHITVFGVNVDAFDMWGQGTMVTVSS VL: DIQMTQSPSSLSASVGDRVTITCRTSQSLSSYDHWYQQKPGKAPKLLIYAASSRLSGVPSRFSGSGSGTDFTLTISSLQPEDFATYYCQQSRTFGQGTKVEIK |  |  | 2.77 µg/mL | 3.01 µg/mL | 1.3 µg/mL | 0.88 µg/mL | 
7 | Antibody 11 (antibody, V domains shown) VH: QVQLQQSGPGLVKPSQTLSLTCAISGDSVSSYNAVWNWIRQSPSRGLEWLGRTYYRSGWYNDYAESVKSRITINPDTSKNQFSLQLNSVTPEDTAVYYCARSGHITVFGVNVDAFDMWGQGTMVTVSS VL: DIQMTQSPSSLSASVGDRVTITCRTSQSLSSYTHWYQQKPGKAPKLLIYAASSRLSGVPSRFSGSGSGTDFTLTISSLQPEDFATYYCQQSRTFGQGTKVEIK |  |  | 2.45 µg/mL | 2.26 µg/mL | 0.88 µg/mL | 0.73 µg/mL | 
8 | Antibody 12 (antibody, V domains shown) VH: QVQLQQSGPGLVKPSQTLSLTCAISGDSVSSYNAVWNWIRQSPSRGLEWLGRTYYRSGWYNDYAESVKSRITINPDTSKNQFSLQLNSVTPEDTAVYYCARSGHITVFGVNVDAFDMWGQGTMVTVSS VL: DIQMTQSPSSLSASVGDRVTITCRTSQSLSSYTHWYQQKPGKAPKLLIYAASSRGSGVPSRFSGSGSGTDFTLTISSLQPEDFATYYCQQSRTFGQGTKVEIK |  |  | 2.09 µg/mL | 2.34 µg/mL | 1.07 µg/mL | 0.69 µg/mL | Avg. Neut., microneutralization (rHK68_I45T H3 HA): 3.38 µg/mL; Avg. Neut., microneutralization (rHK68_I45N H3 HA): 1.94 µg/mL; Avg. Neut., microneutralization (rHK68_D19N H3 HA): 3.04 µg/mL; Avg. Neut., microneutralization (rHK68_A196T H3 HA): 4.06 µg/mL; Avg. Neut., microneutralization (rHK68_Q42R H3 HA): 11.1 µg/mL; Avg. Neut., microneutralization (rHK68_K156Q H3 HA): 3.33 µg/mL; Avg. Neut., microneutralization (rHK68_I18R H3 HA): > 200 µg/mL; Avg. Neut., microneutralization (rHK68_D19Y H3 HA): > 200 µg/mL
9 | Antibody 5 (antibody, V domains shown) VH: QVQLQQSGPGLVKPSQTLSLTCAISGDRVSSNSAVWNWIRQSPSRGLEWLGRTYYRSKWYYDYAESVKSRIVIDPDTSKNQVSLQLNSVTPEDSAIYYCARGGHITVFGLNIDAYDIWGQGAMVTVSS VL: DIQMTQSPSSLSASVGDRVTISCRAQSLSSYLHWYQQKPGQPPKLLIYAATTLQSGVPSRFSGSGSGTDFTLTISTFQAEDVATYYCQQSRTFGQGTKVEIK | 3.72 µg/mL | 1.13 µg/mL |  |  |  |  | 
10 | Antibody 6 (antibody, V domains shown) VH: QVQLQQSGPGLVKPSQTLSLTCAISGDRVSSNSAVWNWIRQSPSRGLEWLGRTYYRSKWYYDYAESVKSRIVIDPDTSKNQVSLQLNSVTPEDSAIYYCARGGHITEFGLNIDAYDIWGQGAMVTVSS VL: DIQMTQSPSSLSASVGDRVTISCRAQSLSSYLHWYQQKPGQPPKLLIYAATTLQSGVPSRFSGSGSGTDFTLTISTFQAEDVATYYCQQSRTFGQGTKVEIK | 10.5 µg/mL | 4.37 µg/mL |  |  |  |  | 

From patent publication US20160257732A1 (published 2016)
